Values quoted from earlier work as cited in article PMC2945288.
pKd: −log10 of the molar value.

Target: coat protein (procapsid) (Salmonella phage P22) (UniProt P26747)
Sequence of UniProt P26747 (P26747 2-430): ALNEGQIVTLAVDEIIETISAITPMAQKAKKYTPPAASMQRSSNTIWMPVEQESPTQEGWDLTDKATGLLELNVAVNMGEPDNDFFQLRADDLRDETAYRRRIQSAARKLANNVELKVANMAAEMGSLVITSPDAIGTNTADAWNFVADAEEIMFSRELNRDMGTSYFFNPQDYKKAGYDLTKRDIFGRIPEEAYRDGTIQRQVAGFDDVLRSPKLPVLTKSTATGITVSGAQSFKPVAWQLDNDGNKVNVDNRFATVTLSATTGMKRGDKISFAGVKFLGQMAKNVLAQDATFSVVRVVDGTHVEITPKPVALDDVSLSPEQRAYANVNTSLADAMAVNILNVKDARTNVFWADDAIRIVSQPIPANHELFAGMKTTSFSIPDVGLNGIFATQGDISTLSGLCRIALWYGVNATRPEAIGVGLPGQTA

## scaffolding protein (loosely bound) (from UniProt P26748)
  pKd: 4.55
